Results published in patent US20170360875A1 (priority 2014, published 2017).
“And” between values parts separate entries of the source, which are not always exact repeats. Equal entries are not always repeated.

Target: Sudan Ebolavirus, Boniface (Bei Resources NR-31810; sonicated, gamma-irradiated infected Vero E6 cell pellets)

With “preformed immune complex of peroxidase-rabbit anti-peroxidase IgG (PAP complex) (from UniProt P00433 31-338)” as the substance, how does the OD 405 nm read?
The OD 405 nm was 1.42 OD 405 nm and 1.29 OD 405 nm and 1.08 OD 405 nm.
